We go through three molecules from patent publication US20240254182A1 (PROVINCIAL HEALTH SERVICES AUTHORITY, published 2024).

Assay [1] concerns the target T1, WT G-CSFR(Ig-CRH), purified, tag cleaved (human, UniProt Q99062 26-331).
T1 construct: also called G-CSFRWT; wild type G-CSFR(Ig-CRH)
T1 chain: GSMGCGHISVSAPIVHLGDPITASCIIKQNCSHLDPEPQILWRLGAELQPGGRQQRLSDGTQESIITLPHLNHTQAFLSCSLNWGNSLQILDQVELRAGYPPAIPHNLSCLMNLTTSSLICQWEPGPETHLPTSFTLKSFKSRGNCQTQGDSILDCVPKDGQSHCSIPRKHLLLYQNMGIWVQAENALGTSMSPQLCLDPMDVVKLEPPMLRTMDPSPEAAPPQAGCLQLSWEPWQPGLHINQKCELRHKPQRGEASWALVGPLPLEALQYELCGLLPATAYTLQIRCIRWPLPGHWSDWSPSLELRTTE
The assay can be described thus: SPR (Biacore T200), WT receptor amine-coupled, cytokine injected. The procedure: (§1) The SPR binding assays were carried out on a Biacore T200 instrument (GE Healthcare, Mississauga, ON, Canada) with PBS-T (PBS+0.05% (v/v) Tween 20) running buffer at a temperature of 25° C. CM5 Series S sensor chip, Biacore amine coupling kit (NHS, EDC and 1 M ethanolamine), and 10 mM sodium acetate buffers were all purchased from GE Healthcare. PBS running buffer with 0.05% Tween20 (PBS-T) was purchased from Teknova Inc. (Hollister, CA). Designs were assessed in three different immobilization orientations.
To assess binding affinity of G-CSFE to G-CSFRWT, recombinant G-CSFRWT purified as described in Example 5 was captured as described above in this Example. Using single-cycle kinetics, six concentrations of a two-fold dilution series of each G-CSFE mutant starting at […] with a blank buffer control were sequentially injected as described above. The same sample titration was also performed on a reference cell with no variants captured. The G-CSFRWT surface was regenerated as described above.
(§2) Double-referenced sensorgrams from duplicate or triplicate repeat injections were analyzed using Biacore™ T200 Evaluation Software v3.0 and fit to the 1:1 Langmuir binding model.
A general note: SPR reads the build-up and loss of mass on a sensor chip optically.

In assay [2] the target is T2, design 300 G-CSFR(Ig-CRH)E, tag cleaved (human, UniProt Q99062 26-331).
T2 chain: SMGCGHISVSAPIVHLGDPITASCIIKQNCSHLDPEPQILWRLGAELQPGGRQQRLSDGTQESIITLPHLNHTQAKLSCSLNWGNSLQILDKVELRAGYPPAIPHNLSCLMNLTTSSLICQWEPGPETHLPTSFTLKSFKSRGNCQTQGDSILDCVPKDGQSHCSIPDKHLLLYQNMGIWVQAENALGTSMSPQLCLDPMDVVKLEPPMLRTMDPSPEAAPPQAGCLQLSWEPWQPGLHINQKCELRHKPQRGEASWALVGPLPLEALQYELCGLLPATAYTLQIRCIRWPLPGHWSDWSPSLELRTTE
The assay is described as follows: SPR, G-CSFRE amine-coupled, G-CSFE injected, single-cycle kinetics. The procedure: as §1
(§3) To determine binding affinity of G-CSFE to G-CSFRE the G-CSFRE mutant was captured by standard amine coupling as described by the manufacturer (GE LifeSciences). Briefly, immediately after EDC/NHS activation, a 5 μg/mL solution of G-CSFRE in 10 mM NaOAc, pH 5.0, was injected at a flow rate of 5 μL/min until a receptor density of ˜700-900 RU was reached. The remaining active groups were quenched by a 420 s injection of 1 M ethanolamine hydrochloride-NaOH pH 8.5 at 10 μL/min. Using single-cycle kinetics, six concentrations of a two-fold dilution series of the corresponding G-CSFE mutant starting at 200 nM with a blank buffer control were sequentially injected at 25 μL/min for 300 s with a 1800 s dissociation phase, resulting in a set of sensorgrams with a buffer blank reference. The same sample titration was also performed on a reference cell with no variants captured. The chip was regenerated to prepare for the next injection cycle by one pulse of 10 mM glycine/HCl, pH 2.0, for 30 s at 30 μL/min.
as §2

In assay [3] the target is T3, design 303 G-CSFR(Ig-CRH)E, tag cleaved (human, UniProt Q99062 26-331).
T3 chain: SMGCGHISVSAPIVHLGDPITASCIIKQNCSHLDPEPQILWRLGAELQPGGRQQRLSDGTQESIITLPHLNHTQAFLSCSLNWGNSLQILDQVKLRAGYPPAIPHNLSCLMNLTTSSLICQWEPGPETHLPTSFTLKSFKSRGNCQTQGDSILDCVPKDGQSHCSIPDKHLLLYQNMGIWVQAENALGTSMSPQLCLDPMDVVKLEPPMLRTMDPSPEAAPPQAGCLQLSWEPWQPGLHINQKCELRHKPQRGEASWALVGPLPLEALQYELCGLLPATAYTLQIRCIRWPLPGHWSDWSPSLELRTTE
The assay is described as follows: SPR, G-CSFRE amine-coupled, G-CSFE injected; steady state derived affinity constant. The procedure: as §3, §2
Kinetic-derived affinity constants (KD) where obtained by fitting the association and dissociation phases of the curves. The KD of WT G-CSF for WT G-CSFR(Ig-CRH) ranged between 1.8-2.5E-9. For the cases in which the kinetic parameters could not be fit an attempt was made to derive a steady state affinity constant. In those cases, the KD fold change was calculated from the steady state derived KD for the WT G-CSF:WT G-CSFR(Ig-CRH) pair and is indicated in Table 7.

Assay [4] deals with T4, site II design 15 G-CSFR(CRH)E with N-terminal hexahistidine tag (human).
T4 construct: also called design #15 G-CSFRE
T4 chain: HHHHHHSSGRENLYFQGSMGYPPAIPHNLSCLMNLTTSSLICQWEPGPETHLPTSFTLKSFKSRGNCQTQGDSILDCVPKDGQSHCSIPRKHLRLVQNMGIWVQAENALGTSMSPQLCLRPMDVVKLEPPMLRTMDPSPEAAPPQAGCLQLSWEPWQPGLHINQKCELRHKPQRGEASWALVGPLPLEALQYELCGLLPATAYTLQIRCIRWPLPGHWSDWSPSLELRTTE
The assay is described as follows: WT G-CSF co-expressed with variant G-CSFR(CRH) in insect cells, pulldown via the Twin Strep tag on G-CSF, reducing SDS-PAGE. The procedure:
(§4) The P2 viral stocks were tested for protein expression in small-scale. P2 virus was used to co-infect G-CSFE mutants with their corresponding G-CSFRE mutant in Trichoplusia ni (Tni) cells in 12-well plates. Separate co-infections for each design mutant were performed using the P2 stocks of G-CSFWT and GCSFR(CRH)WT, as well as for G-CSFE mutants alone. For each reaction, 2 mL of healthy log-phase Tni at 2×10⁶ cells ml⁻¹ was inoculated with 20 μl P2 virus. Plates were incubated at 27° C. for approximately 70 h with shaking at 135 rpm. […] Briefly, to each 1.8 mL reaction supernatant 0.2 mL 10× HEPES Buffered Saline (HBS: 20 mM HEPES pH8, 150 mM NaCl) was added to 1×, 20 μl bed volume (b.v) of purification beads added and reactions incubated for 30 minutes with end-over-end mixing at 24° C. An additional 20 μl b.v of purification beads was added followed by a second 30 minute incubation. Beads were pelleted by centrifugation at 2200 rpm for 3 minutes, supernatant was removed and the beads washed with 1× HBS buffer.

Assay [5] concerns the target T5, site II design 30 G-CSFR(CRH)E with N-terminal hexahistidine tag (human, UniProt Q99062 120-331).
T5 construct: also called design #30 G-CSFRE
T5 chain: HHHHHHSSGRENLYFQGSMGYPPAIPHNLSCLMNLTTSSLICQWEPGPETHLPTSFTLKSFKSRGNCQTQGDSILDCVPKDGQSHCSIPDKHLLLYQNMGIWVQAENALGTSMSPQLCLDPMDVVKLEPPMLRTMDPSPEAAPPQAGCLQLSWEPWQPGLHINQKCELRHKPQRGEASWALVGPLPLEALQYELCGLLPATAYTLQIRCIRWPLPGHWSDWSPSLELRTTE
Described as above. The procedure: as §4

Assay [6] deals with T6, site II design 35 G-CSFR(CRH)E with N-terminal hexahistidine tag (human).
T6 construct: also called design #35 G-CSFRE
T6 chain: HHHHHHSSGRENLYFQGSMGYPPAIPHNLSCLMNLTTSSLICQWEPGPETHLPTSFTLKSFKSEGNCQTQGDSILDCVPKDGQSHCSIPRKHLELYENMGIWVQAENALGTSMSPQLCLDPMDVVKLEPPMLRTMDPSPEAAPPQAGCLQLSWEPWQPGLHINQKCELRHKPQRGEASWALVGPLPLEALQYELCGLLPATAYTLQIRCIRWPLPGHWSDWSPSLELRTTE
Described as above. The procedure:
as §4

The target in assay [7] is T7, site II design 34 G-CSFR(CRH)E with N-terminal hexahistidine tag (human, UniProt Q99062 120-331).
T7 construct: also called design #34 G-CSFRE
T7 chain: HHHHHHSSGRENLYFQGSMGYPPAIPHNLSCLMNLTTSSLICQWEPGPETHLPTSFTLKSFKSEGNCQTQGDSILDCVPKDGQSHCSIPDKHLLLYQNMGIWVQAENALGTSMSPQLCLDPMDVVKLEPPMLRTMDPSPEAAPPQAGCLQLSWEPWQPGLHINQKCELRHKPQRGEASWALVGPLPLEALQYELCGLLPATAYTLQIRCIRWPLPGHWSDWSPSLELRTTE
Described as above. The procedure: as §4

In assay [8] the target is T8, combination design 402 G-CSFR(Ig-CRH)E with N-terminal hexahistidine tag (human, UniProt Q99062 25-331).
T8 chain: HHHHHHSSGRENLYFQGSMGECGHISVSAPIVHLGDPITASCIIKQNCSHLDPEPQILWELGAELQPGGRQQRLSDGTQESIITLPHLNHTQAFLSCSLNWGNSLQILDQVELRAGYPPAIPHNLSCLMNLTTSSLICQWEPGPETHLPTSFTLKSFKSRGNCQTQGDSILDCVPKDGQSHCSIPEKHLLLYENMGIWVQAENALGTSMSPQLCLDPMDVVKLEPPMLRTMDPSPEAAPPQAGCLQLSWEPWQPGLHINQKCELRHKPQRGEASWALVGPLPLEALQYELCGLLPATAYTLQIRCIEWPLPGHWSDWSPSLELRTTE
The assay is described as follows: co-expression in insect cells, pulldown via the Twin Strep tag on G-CSF, reducing SDS-PAGE; G-CSFR(Ig-CRH) format. The procedure: as §4
(§5) The co-expression assay with pulldown through the cytokine TST tag was performed as described above in Example 2, with the difference that the receptor constructs contained the Ig and CRH domains (residues 2-308, Table 1) referred to as G-CSFR(Ig-CRH).

The target in assay [9] is T9, combination design 401 G-CSFR(Ig-CRH)E with N-terminal hexahistidine tag (human, UniProt Q99062 25-331).
T9 chain: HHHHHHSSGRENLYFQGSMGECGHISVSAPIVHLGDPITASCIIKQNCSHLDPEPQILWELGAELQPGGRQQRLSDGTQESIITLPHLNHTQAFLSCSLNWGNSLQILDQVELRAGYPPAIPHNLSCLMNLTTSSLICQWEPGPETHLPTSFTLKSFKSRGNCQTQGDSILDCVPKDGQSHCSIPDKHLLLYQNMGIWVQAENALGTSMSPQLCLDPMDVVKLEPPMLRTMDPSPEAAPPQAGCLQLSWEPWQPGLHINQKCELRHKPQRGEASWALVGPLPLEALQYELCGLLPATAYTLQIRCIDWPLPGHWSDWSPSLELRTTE
Described as above. The procedure:
as §4, §5

B1: design 300 G-CSFE, tag cleaved (ligand)
chain: TPLGPASSLPQSFLLKCLEQVRKIQGDGAALQEKLCATYDDCHPEELVLLGHSLGIPWAPLSSCPSQALQLAGCLSQLHSGLFLYQGLLQALEGISPELGPTLDTLQKDVARFATTIWQQMEELGMAPALQPTQGAMPAFASAFQRRAGGVLVASHLQSFLEVSYRVLRHLAQAAAENLYFQ
notes: also called design 300 G-CSFE mutant
B1: the binding result in assay [1] is “no binding”. For the same molecule, in assay [2], the “KD fold change (against WT:WT)” value is 194 fold.

B2: design 303 G-CSFE, tag cleaved (ligand)
chain: TPLGPASSLPQSFLLKCLEQVRKIQGDGAALQEKLCATYKLCHPEELVLLGHSLGIPWAPLSSCPSQALQLAGCLSQLHSGLFLYQGLLQALEGISPELGPTLDTLQKDVARFATTIWQQMEELGMAPALQPTQGAMPAFASAFQREAGGVLVASHLQSFLEVSYRVLRHLAQAAAENLYFQ
notes: also called design 303 G-CSFE mutant
Take B2: the binding result in assay [1] is “no binding”. In addition, in assay [3], the “KD fold change (against WT:WT)” value is 2.2 fold.

B3: WT G-CSF with C-terminal Twin Strep tag (ligand)
chain: not shown
notes: construct of the insect-cell co-expression pulldown; also called G-CSFWT
B3: the binding result in assay [4], in assay [5], in assay [6], in assay [7], in assay [8] and in assay [9] was “no binding” throughout.
